Among the data in the RNAGym collection of RNA variant scans (doi:10.7554/elife.80360) are self-cleavage values, retold here.

Sequences and labels used below:
B1: CPEB3 Ribozyme (parent)
chain: GGGGGCCACAGCAGAAGCGUUCACGUCGCGGCCCCUGUCAGAUUCUGGUGAAUCUGCGAAUUCUGCUGU

In the data set the parent is B1. The data set is described as follows: self-cleavage, relative activity (ratio to wild type); higher = more cleavage; co-transcriptional.
As to G25U C63A, the self-cleavage came out at 0.129. Consider G25U C63U, for which the self-cleavage turned out to be 0.173. Regarding U26A C32G, the self-cleavage was determined as 0.231.

Regarding U26A C32U, the self-cleavage came to 0.869. Consider U26A C32A, for which the self-cleavage was found to be 0.422. With U26A A51U, the self-cleavage was 0.813. In the case of U26A it was 0.907.

Turning to U26C, the self-cleavage was 0.993.

Consider G25U C27G, for which the self-cleavage is 0.16. Under G25C G31C stands 0.143; under G25C G31U, 0.176; under U26A U67C, 0.868.

In the case of U26A U67G, the self-cleavage is 0.858. Under U26A G41C stands 0.54; under G25C G58C, 0.234; under U26C G30U, 0.304.

Regarding U26C G30A, the self-cleavage is 0.749. In the case of U26C U43G it was 0.735. For U26A G56U, the self-cleavage amounted to 0.752.

Regarding U26A G56C, the self-cleavage stood at 0.357. In the case of U26C C29U it was 0.135. In the case of U26C C29G, the self-cleavage came out at 0.345. Regarding U26C C29A, the self-cleavage stood at 0.414.

For G25C C66G, the self-cleavage was 0.0932. On to G25C C66U, for which the self-cleavage amounted to 0.15.

For G25C C66A, the self-cleavage was found to be 0.134. Turning to G25C C35A, the self-cleavage turned out to be 0.141.

On to G25C C35U, for which the self-cleavage was found to be 0.177. In the case of G25C C63U it was 0.136; in that of G25C G56A, 0.143; in that of U26C A59C, 0.59. Under U26C A59G stands 1.05. In the case of U26C A59U, the self-cleavage is 0.677. For U26C G41U, the self-cleavage worked out at 0.8.

U26C G41C: the self-cleavage was 0.708.

As to U26C G41A, the self-cleavage stood at 0.673. Consider U26C C34G, for which the self-cleavage stood at 0.492. In the case of G25U U36C it was 0.103; in that of G25U U36A, 0.125; in that of G25U G28C, 0.159. Consider G25U G28A, for which the self-cleavage was determined as 0.141. For U26C U55A, the self-cleavage worked out at 0.821. U26C U55C: the self-cleavage amounted to 0.833. For the variant U26A A42G, the self-cleavage stood at 0.72. Take U26A A42C: the self-cleavage worked out at 0.797. In the case of G25C G48U it was 0.186. Regarding G25C G48A, the self-cleavage is 0.16. Under G25U U55G stands 0.146.

Turning to G25U U55A, the self-cleavage stood at 0.154.

As to U26C A52U, the self-cleavage is 0.989. On to U26C A52C, for which the self-cleavage is 0.995. For U26C A52G, the self-cleavage turned out to be 1.01.

As for U26C C57A, the self-cleavage stood at 0.209.

Regarding U26C C57G, the self-cleavage worked out at 0.268. On to U26C A60C, for which the self-cleavage was 0.233. In the case of U26C A60U it was 0.337. Under G25U U38G stands 0.205. As to U26A U43G, the self-cleavage was determined as 0.707.

For the variant U26A U43C, the self-cleavage was found to be 0.802.

On to G25U, for which the self-cleavage was found to be 0.172. In the case of G25U U62C it was 0.193. Under U26A U62A stands 0.671; under G25U A51C, 0.212; under G25U A51G, 0.168. Turning to G25U A51U, the self-cleavage came to 0.152. Turning to U26A G31A, the self-cleavage was found to be 0.511.

With G25U U44G, the self-cleavage stood at 0.146. As to G25U U44C, the self-cleavage came to 0.105. In the case of G25U U44A, the self-cleavage was 0.136. In the case of U26C U36A it was 0.153. Take U26C U36C: the self-cleavage came to 0.88. U26A C29G: the self-cleavage was 0.307. Consider G25C G41C, for which the self-cleavage was 0.0934. Turning to G25C G41A, the self-cleavage is 0.123. In the case of U26C G28U it was 0.139. Under U26C G28A stands 0.108; under U26C U44G, 1.02. U26C U44A: the self-cleavage came out at 0.953. In the case of U26C U44C it was 0.941; in that of G25U C33G, 0.128; in that of G25U C33U, 0.137.

In the case of G25U C33A, the self-cleavage came out at 0.175.

G25C G47U: the self-cleavage was found to be 0.213. In the case of G25C G47A it was 0.102; in that of G25C G47C, 0.142; in that of G25U C39U, 0.151.

G25U C39G: the self-cleavage was 0.124. In the case of G25C C32G it was 0.173. In the case of G25C C32A it was 0.147; in that of G25U U26C, 0.631; in that of G25U U26A, 0.273. Under U26A U38C stands 0.419; under U26A U38G, 0.244. With U26A U38A, the self-cleavage amounted to 0.423. In the case of G25C G65C it was 0.18. Under G25C G65U stands 0.151; under U26A U36A, 0.15; under U26A U36C, 0.403.

With U26A U36G, the self-cleavage worked out at 0.145. In the case of U26C U67G it was 0.945.

Regarding U26C U67C, the self-cleavage came to 0.968.

With U26C U67A, the self-cleavage turned out to be 1.01. On to G25U G41A, for which the self-cleavage came out at 0.112. As for G25U G50C, the self-cleavage worked out at 0.189. Under G25U G50U stands 0.151. Regarding G25U G50A, the self-cleavage turned out to be 0.144. G25C G28U: the self-cleavage stood at 0.16. In the case of G25C G28A it was 0.14; in that of U26A G65A, 0.736; in that of G25U U69G, 0.183. Turning to G25U U69C, the self-cleavage came out at 0.263. Under G25U A52U stands 0.199; under G25U A52G, 0.146; under G25U A52C, 0.246. Take U26C C45U: the self-cleavage was found to be 0.953.

Take U26C U49G: the self-cleavage was determined as 1.01. Under U26C U49C stands 0.932. In the case of G25U G58A it was 0.214; in that of G25U G58C, 0.107.

On to G25C A60C, for which the self-cleavage stood at 0.149. Under G25C A60G stands 0.207; under U26A U55C, 0.712; under U26A U55G, 0.44. Take G25C U43C: the self-cleavage worked out at 0.164. G25C U43G: the self-cleavage came out at 0.188. Consider U26A G37A, for which the self-cleavage turned out to be 0.287.

As for U26A G37C, the self-cleavage worked out at 0.209.

As to U26A G37U, the self-cleavage is 0.222.

Take U26C G58U: the self-cleavage came to 0.993. As to U26C G58C, the self-cleavage was 0.963.

U26C G58A: the self-cleavage was 0.937. G25U C45A: the self-cleavage stood at 0.181. Turning to G25U C45U, the self-cleavage was 0.156. With U26A G68A, the self-cleavage worked out at 0.941.

On to G25C U61G, for which the self-cleavage was 0.176. Under G25U C57A stands 0.137. In the case of G25U C57G it was 0.151; in that of G25U C57U, 0.15. In the case of G25U U61G it was 0.149; in that of G25C U67A, 0.129; in that of G25C U67G, 0.24.

As to G25U C66U, the self-cleavage was 0.121. In the case of U26A U44G it was 0.85; in that of U26A U44A, 0.843. Under U26A U46G stands 0.895. Under U26A U46A stands 0.906; under G25U U49G, 0.189. Turning to G25U U49C, the self-cleavage came to 0.157.

For U26A C27G, the self-cleavage worked out at 0.121. Under U26A C27U stands 0.429; under G25U G48C, 0.215. Turning to G25U G48U, the self-cleavage amounted to 0.155. In the case of G25U G48A it was 0.176.

Regarding U26C G47U, the self-cleavage came out at 1.01. In the case of U26C G47C it was 0.978. Under U26C G47A stands 0.957; under U26A U64G, 0.719. Under U26A U64A stands 0.628. As to U26A C34G, the self-cleavage was 0.501. In the case of U26A C34U it was 0.93.

Turning to U26A C63A, the self-cleavage came out at 0.51. In the case of G25C G37C it was 0.156; in that of G25C G37A, 0.171. Regarding G25C U53G, the self-cleavage was 0.106. Under G25C U53C stands 0.0815; under U26A A40G, 0.7; under U26A A40C, 0.32.
